{
  "source": "patent US6335013B1",
  "about": "“Methods and materials relating to CD39-like polypeptides” (Hyseq, Inc., priority 1999, dated 2002)",
  "molecules": {"B1": {"name": "CD39L4 dimer: dimeric form of secreted CD39L4 (protein, UniProt O75356 25-428, looked up)", "Nucleoside diphosphate …": "NQQTWFEGIFLSSMCPINVSASTLYGIMFDAGSTGTRIHVYTFVQKMPGQLPILEGEVFDSVKPGLSAFVDQPKQGAETVQGLLEVAKDSIPRSHWKKTPVVLKATAGLRLLPEHKAKALLFEVKEIFRKSPFLVPKGSVSIMDGSDEGILAWVTVNFLTGQLHGHRQETVGTLDLGGASTQITFLPQFEKTLEQTPRGYLTSFEMFNSTYKLYTHSYLGFGLKAARLATLGALETEGTDGHTFRSACLPRWLEAEWIFGGVKYQYGGNQEGEVGFEPCYAEVLRVVRGKLHQPEEVQRGSFYAFSYYYDRAVDTDMIDYEKGGILKVEDFERKAREVCDNLENFTSGSPFLCMDLSYITALLKDGFGFADSTVLQLTKKVNNIETGWALGATFHLLQSLGISH", "modifications": "dimer"}, "B2": {"name": "deglycosylated CD39-L4: CD39-L4 from tunicamycin treated COS-7 cells (protein, UniProt O75356 25-428, looked up)", "Nucleoside diphosphate …": "B1 Nucleoside diphosphate …", "modifications": "deglycosylated (tunicamycin)", "notes": "CD39-L4 from tunicamycin treated COS-7 cells"}, "B3": {"name": "CD39L4 Cys39 to Ala mutant with a myc epitope and a 6 His tag at the C-terminus (enzyme, not shown: small tags and cut ends)", "chain": "HRNQQTWFEGIFLSSMAPINVSASTLYGIMFDAGSTGTRIHVYTFVQKMPGQLPILEGEVFDSVKPGLSAFVDQPKQGAETVQGLLEVAKDSIPRSHWKKTPVVLKATAGLRLLPEHKAKALLFEVKEIFRKSPFLVPKGSVSIMDGSDEGILAWVTVNFLTGQLHGHRQETVGTLDLGGASTQITFLPQFEKTLEQTPRGYLTSFEMFNSTYKLYTHSYLGFGLKAARLATLGALETEGTDGHTFRSACLPRWLEAEWIFGGVKYQYGGNQEGEVGFEPCYAEVLRVVRGKLHQPEEVQRGSFYAFSYYYDRAVDTDMIDYEKGGILKVEDFERKAREVCDNLENFTSGSPFLCMDLSYITALLKDGFGFADSTVLQLTKKVNNIETGWALGATFHLLQSLGISH", "notes": "also called Ala39 mutant; cys-mutant CD39L4"}, "B4": {"name": "CD39: 510-amino acid cell-surface ecto-apyrase (ATPDase) (protein, UniProt P49961 1-510, looked up)", "Ectonucleoside triphosphate …": "MEDTKESNVKTFCSKNILAILGFSSIIAVIALLAVGLTQNKALPENVKYGIVLDAGSSHTSLYIYKWPAEKENDTGVVHQVEECRVKGPGISKFVQKVNEIGIYLTDCMERAREVIPRSQHQETPVYLGATAGMRLLRMESEELADRVLDVVERSLSNYPFDFQGARIITGQEEGAYGWITINYLLGKFSQKTRWFSIVPYETNNQETFGALDLGGASTQVTFVPQNQTIESPDNALQFRLYGKDYNVYTHSFLCYGKDQALWQKLAKDIQVASNEILRDPCFHPGYKKVVNVSDLYKTPCTKRFEMTLPFQQFEIQGIGNYQQCHQSILELFNTSYCPYSQCAFNGIFLPPLQGDFGAFSAFYFVMKFLNLTSEKVSQEKVTEMMKKFCAQPWEEIKTSYAGVKEKYLSEYCFSGTYILSLLLQGYHFTADSWEHIHFIGKIQGSDAGWTLGYMLNLTNMIPAEQPLSTPLSHSTYVFLMVLFSLVLFTVAIIGLLIFHKPSYFWKDMV"}, "B5": {"name": "CD39-L66: isoform (splice variant) of CD39-L4, amino acid sequence SEQ ID NO: 25 (protein)", "chain": "MATSWGTVFFMLVVSCVCSAVSHRNQQTWFEGIFLSSMCPINVSASTLYGIMFDAGSTGTRIHVYTFVQKMPGQLPILEGEVFDSVKPGLSAFVDQPKQGAETVQGLLEVAKDSIPRSHWKKTPVVLKATAGLRLLPEHKAKALLFEVKEIFRKSPFLVPKGSVSIMDGSDEGILAWVTVNFLTGQLHGHRQETVGTLDLGGASTQITFLPQFEKTLEQTPRGYLTSFEMFNSTYKLYTHSYLGFGLKAARLATLGALETEGTDGHTFRSACLPRWLEAEWIFGGVKYQYGGNQEGEVGFEPCYAEVLRVVRGKLHQPEEVQRGSFYAFSYYYDRAVDTDMIDYEKGGILKVEDFERKAREVCDNLENFTSGSPFLCMDLSYITALLKDGFGFADSTVLQAAVLR"}, "B6": {"name": "CD39-L4: novel human CD39-like protein, 428 amino acids, amino acid sequence SEQ ID NO: 3; soluble apyrase specific for NDPs (protein)", "chain": "MATSWGTVFFMLVVSCVCSAVSHRNQQTWFEGIFLSSMCPINVSASTLYGIMFDAGSTGTRIHVYTFVQKMPGQLPILEGEVFDSVKPGLSAFVDQPKQGAETVQGLLEVAKDSIPRSHWKKTPVVLKATAGLRLLPEHKAKALLFEVKEIFRKSPFLVPKGSVSIMDGSDEGILAWVTVNFLTGQLHGHRQETVGTLDLGGASTQITFLPQFEKTLEQTPRGYLTSFEMFNSTYKLYTHSYLGFGLKAARLATLGALETEGTDGHTFRSACLPRWLEAEWIFGGVKYQYGGNQEGEVGFEPCYAEVLRVVRGKLHQPEEVQRGSFYAFSYYYDRAVDTDMIDYEKGGILKVEDFERKAREVCDNLENFTSGSPFLCMDLSYITALLKDGFGFADSTVLQLTKKVNNIETGWALGATFHLLQSLGISH"}},
  "key": {"COS-7 cells [1]": {"system": "COS-7 cells", "assay": "Brefeldin A treatment of COS-7 cells transfected with CD39-L2, secretion", "format": "cell-based", "conditions": "transfected COS-7 cells, 8 hours, varying dosages"}, "COS-7 cells [2]": {"system": "COS-7 cells", "assay": "Brefeldin A treatment of COS-7 cells transfected with CD39-L4-6His, secretion", "format": "cell-based", "conditions": "transfected COS-7 cells, 8 hours, increasing dosages"}, "[3]": {"assay": "ADPase activity of CD39-L4 forms (insect-expressed, dimer, deglycosylated)", "format": "biochemical"}, "[4]": {"target": "the molecule itself", "assay": "Western blot of SDS-PAGE, self-association (dimer)"}, "[5]": {"conditions": "membrane bound or engineered soluble form; cited from earlier work"}, "[6]": {"assay": "Assay for ATPase activity, [33P]Pi released from [γ33P]ATP", "format": "biochemical", "conditions": "transfected COS-7 cells, 10 μCi [γ33P]ATP, one hour, 37° C."}, "[7]": {"assay": "ADPase activity of CD39-L4 from transfected COS-7 cells, stimulation by divalent cations", "format": "biochemical", "conditions": "1 mM ADP"}, "[8]": {"assay": "Kinetic characteristics of CD39L4 ADP hydrolysis", "format": "biochemical"}, "[9]": {"assay": "ADPase and ATPase activity of CD39L4 wild type and ACR mutants, inorganic phosphate released", "format": "biochemical"}},
  "data": [
    {"molecule": "C[C@H]1CCC/C=C/[C@@H]2C[C@H](O)C[C@H]2[C@H](O)/C=C/C(=O)O1", "note": "[brefeldin A]", "values": [
      {"measurement": "effect on recombinant CD39-L2 in the media", "setting": "COS-7 cells [1]", "result": "decreased in a brefeldin A dose dependent manner"},
      {"measurement": "effect on secretion of CD39-L4-6His", "setting": "COS-7 cells [2]", "result": "blocked secretion of CD39-L4-6His"}
    ]},
    {"molecule": "B1", "values": [
      {"measurement": "enzymatic (ADPase) activity of the dimer", "setting": "[3]; monomer and dimer enriched sucrose density gradient fractions", "result": "does not possess any significant level of enzymatic activity"}
    ]},
    {"molecule": "B2", "values": [
      {"measurement": "ADPase activity of deglycosylated protein", "setting": "[3]; from tunicamycin (5 μg/ml) treated COS-7 cells", "result": "comparable to an equal amount of the glycosylated protein"}
    ]},
    {"molecule": "B3", "values": [
      {"measurement": "binding result", "setting": "[4]", "result": "no binding"}
    ]},
    {"molecule": "B4", "values": [
      {"measurement": "hydrolysis of ATP and ADP, in words", "setting": "[5]", "result": "able to hydrolyze both ATP and ADP substrates efficiently"}
    ]},
    {"molecule": "B5", "values": [
      {"measurement": "increase in ATPase activity over cells transfected with vector alone", "setting": "[6]", "result": "at least a four fold increase in activity"}
    ]},
    {"molecule": "B6", "values": [
      {"measurement": "fold increase in ADPase activity over cells transfected with vector alone", "setting": "[7]; CD39-L4-6His from COS-7 medium on Nickel-NTA resin, 37° C., 30 min, no added cation", "result": 2.3, "unit": "fold"},
      {"measurement": "fold increase in ADPase activity when Ca2+ added", "setting": "[7]; Ca2+ added", "result": 3.6, "unit": "fold"},
      {"measurement": "fold increase in ADPase activity when Mg2+ added", "setting": "[7]; Mg2+ added", "result": 6, "unit": "fold"},
      {"measurement": "cooperativity of ADPase activity, in words", "setting": "[8]", "result": "does not appear to possess cooperativity"},
      {"measurement": "Vmax of ADP hydrolysis", "setting": "[8]; 15 mM CaCl2, ADP 0.75-18 mM, 37° C., 15 min, 60 ng protein per reaction, Michaelis-Menten fit", "result": 1191, "unit": "pmol/min"},
      {"measurement": "Km", "setting": "[8]; 15 mM CaCl2, ADP 0.75-18 mM, 37° C., 15 min, Michaelis-Menten fit", "result": 12.7, "unit": "mM"},
      {"measurement": "turnover number, kcat, ADP as substrate", "setting": "[8]; assuming 60 ng protein and 46000 g/mol", "result": 15.2, "unit": "s⁻¹"},
      {"measurement": "hydrolysis of ADP, in words", "setting": "[9]; ADP as substrate", "result": "hydrolyze ADP"},
      {"measurement": "hydrolysis of ATP, in words", "setting": "[9]; ATP as substrate", "result": "neither the CD39L4 nor the CD39L4 mutant, ACR III, catalyzed hydrolysis"},
      {"measurement": "increase in ATPase activity over cells transfected with vector alone", "setting": "[6]", "result": "at least a four fold increase in activity"}
    ]}
  ]
}
